Test results published in publication doi:10.1101/2020.08.14.248047v1.

Substrate: O=C(CCc1ccc(O)cc1)c1c(O)cc(O)cc1O[C@@H]1O[C@H](CO)[C@@H](O)[C@H](O)[C@H]1O
Assay: cells, lysate or membranes
Conditions: Xenopus oocytes, pH 5.0, 15 min uptake, cumulative transport assay

B1: PUP8 (AtPUP8) (Arabidopsis thaliana) (protein)
chain: MEITQVIYVNDHNNIEANLTGQEEMNTTMEIESSSVPQSKNYKKWLRISIYVFFVLACQALSTILGRVYYENGGKSTWMGTLVQLIGFPVLFLFRFFSQTKNPKPTEADFRKFSSFTILGSVYIVTGLLVSANSYMSSVGLLYLPVSTFSLILASQLAFTAFFSYFLNSQKFTPFIVNSLFLLTISSALLVVNTDSENTAKVSRVKYVIGIICTIGASAGIGLLLSLVQLILRKVLKKQTFSTVTDLVAYQSLVASCVVLIGLFASGEWKTLTSEMENYKLGKVPYVMTLASIAISWQVYTIGVVGLIFESSSVFSNSITAVGLPIVPVVAVIVFHDKMNASKIFSIILAIWGFISFVYQHYLDEKKLKTSHTSPVGDPHLLPAEEGHTNIHSV
Km: 296 ± 39 µM
